Source: article PMC10786891, “Massively parallel profiling of RNA-targeting CRISPR-Cas13d”

T1: EsCas13d, nuclease-dead (Eubacterium siraeum, UniProt B0MS50, R295A;H300A;R849A;H854A)
T1 sequence: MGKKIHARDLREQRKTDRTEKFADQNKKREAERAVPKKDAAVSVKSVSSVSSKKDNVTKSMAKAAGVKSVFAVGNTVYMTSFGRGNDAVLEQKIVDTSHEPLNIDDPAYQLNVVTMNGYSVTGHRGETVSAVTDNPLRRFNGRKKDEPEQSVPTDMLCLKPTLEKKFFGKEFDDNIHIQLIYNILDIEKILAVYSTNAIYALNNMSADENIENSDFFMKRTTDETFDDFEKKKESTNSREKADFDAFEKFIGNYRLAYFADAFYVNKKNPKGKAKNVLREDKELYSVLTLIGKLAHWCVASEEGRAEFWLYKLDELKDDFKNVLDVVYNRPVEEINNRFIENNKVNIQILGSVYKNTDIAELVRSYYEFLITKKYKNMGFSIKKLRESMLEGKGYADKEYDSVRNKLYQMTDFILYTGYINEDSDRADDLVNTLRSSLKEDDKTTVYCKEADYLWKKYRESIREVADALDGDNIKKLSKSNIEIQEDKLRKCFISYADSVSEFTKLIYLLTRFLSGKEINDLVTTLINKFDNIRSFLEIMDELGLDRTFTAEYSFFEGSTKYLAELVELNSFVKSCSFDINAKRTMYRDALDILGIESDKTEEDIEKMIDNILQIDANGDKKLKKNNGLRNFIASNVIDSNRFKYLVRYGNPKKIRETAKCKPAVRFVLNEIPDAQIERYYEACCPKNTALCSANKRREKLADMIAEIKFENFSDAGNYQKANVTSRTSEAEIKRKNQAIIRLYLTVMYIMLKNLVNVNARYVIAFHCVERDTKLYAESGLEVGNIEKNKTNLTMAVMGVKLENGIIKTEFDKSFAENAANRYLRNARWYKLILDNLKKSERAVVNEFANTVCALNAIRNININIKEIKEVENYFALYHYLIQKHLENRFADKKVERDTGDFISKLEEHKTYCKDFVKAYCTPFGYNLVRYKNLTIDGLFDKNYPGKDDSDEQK

B1: target 1 C6G,C21U (mixed)
RNA 1: CACCCGUGCAAAAAUGCAGGGGUCUAAAACUGAGCGGAUAACCUCUCUAUGG
RNA 2: GGGAAUGGAUCCACAUCUACGAAUUCGUACUAUAGAGAGGUUAUCGGCUCACCGAGAUCGGAAGAGCACACGU
B2: target 1 U3G,C7U (mixed)
RNA 1: CACCCGUGCAAAAAUGCAGGGGUCUAAAACUGAGCGGAUAACCUCUCUAUGG
RNA 2: GGGAAUGGAUCCACAUCUACGAAUUCGUACCAUAGAGAGGUUAUUCGCGCACCGAGAUCGGAAGAGCACACGU
B3: target 2 MT 5'PFS GUU 3'PFS AGC (mixed)
RNA 1: CACCCGUGCAAAAUUGCAGGGGUCUAAAACCUUCUCCAAAUUGUUUCAUCCU
RNA 2: GGGAAUGGAUCCACAUCUACGAAUUCGUUAGGAUGAAACAAUUUGGAGAAGAGCAGAUCGGAAGAGCACACGU
B4: target 2 MT 5'PFS AAU 3'PFS CGC (mixed)
RNA 1: CACCCGUGCAAAAUUGCAGGGGUCUAAAACCUUCUCCAAAUUGUUUCAUCCU
RNA 2: GGGAAUGGAUCCACAUCUACGAAUUCAAUAGGAUGAAACAAUUUGGAGAAGCGCAGAUCGGAAGAGCACACGU
B5: target 2 MT 5'PFS ACC 3'PFS CUA (mixed)
RNA 1: CACCCGUGCAAAAUUGCAGGGGUCUAAAACCUUCUCCAAAUUGUUUCAUCCU
RNA 2: GGGAAUGGAUCCACAUCUACGAAUUCACCAGGAUGAAACAAUUUGGAGAAGCUAAGAUCGGAAGAGCACACGU
B6: target 2 MT 5'PFS CUU 3'PFS AAU (mixed)
RNA 1: CACCCGUGCAAAAUUGCAGGGGUCUAAAACCUUCUCCAAAUUGUUUCAUCCU
RNA 2: GGGAAUGGAUCCACAUCUACGAAUUCCUUAGGAUGAAACAAUUUGGAGAAGAAUAGAUCGGAAGAGCACACGU
B7: target 2 MT 5'PFS GAU 3'PFS UUA (mixed)
RNA 1: CACCCGUGCAAAAUUGCAGGGGUCUAAAACCUUCUCCAAAUUGUUUCAUCCU
RNA 2: GGGAAUGGAUCCACAUCUACGAAUUCGAUAGGAUGAAACAAUUUGGAGAAGUUAAGAUCGGAAGAGCACACGU
B8: target 2 MT 5'PFS UUA 3'PFS CCA (mixed)
RNA 1: CACCCGUGCAAAAUUGCAGGGGUCUAAAACCUUCUCCAAAUUGUUUCAUCCU
RNA 2: GGGAAUGGAUCCACAUCUACGAAUUCUUAAGGAUGAAACAAUUUGGAGAAGCCAAGAUCGGAAGAGCACACGU
B9: target 2 MT 5'PFS CUU 3'PFS AAG (mixed)
RNA 1: CACCCGUGCAAAAUUGCAGGGGUCUAAAACCUUCUCCAAAUUGUUUCAUCCU
RNA 2: GGGAAUGGAUCCACAUCUACGAAUUCCUUAGGAUGAAACAAUUUGGAGAAGAAGAGAUCGGAAGAGCACACGU
B10: target 2 MT 5'PFS AGC 3'PFS CAU (mixed)
RNA 1: CACCCGUGCAAAAUUGCAGGGGUCUAAAACCUUCUCCAAAUUGUUUCAUCCU
RNA 2: GGGAAUGGAUCCACAUCUACGAAUUCAGCAGGAUGAAACAAUUUGGAGAAGCAUAGAUCGGAAGAGCACACGU
B11: target 2 MT 5'PFS AUA 3'PFS CUG (mixed)
RNA 1: CACCCGUGCAAAAUUGCAGGGGUCUAAAACCUUCUCCAAAUUGUUUCAUCCU
RNA 2: GGGAAUGGAUCCACAUCUACGAAUUCAUAAGGAUGAAACAAUUUGGAGAAGCUGAGAUCGGAAGAGCACACGU
B12: target 2 MT 5'PFS AAU 3'PFS CGG (mixed)
RNA 1: CACCCGUGCAAAAUUGCAGGGGUCUAAAACCUUCUCCAAAUUGUUUCAUCCU
RNA 2: GGGAAUGGAUCCACAUCUACGAAUUCAAUAGGAUGAAACAAUUUGGAGAAGCGGAGAUCGGAAGAGCACACGU
B13: target 2 MT 5'PFS AGA 3'PFS ACC (mixed)
RNA 1: CACCCGUGCAAAAUUGCAGGGGUCUAAAACCUUCUCCAAAUUGUUUCAUCCU
RNA 2: GGGAAUGGAUCCACAUCUACGAAUUCAGAAGGAUGAAACAAUUUGGAGAAGACCAGAUCGGAAGAGCACACGU
B14: target 2 MT 5'PFS AGC 3'PFS CAA (mixed)
RNA 1: CACCCGUGCAAAAUUGCAGGGGUCUAAAACCUUCUCCAAAUUGUUUCAUCCU
RNA 2: GGGAAUGGAUCCACAUCUACGAAUUCAGCAGGAUGAAACAAUUUGGAGAAGCAAAGAUCGGAAGAGCACACGU
B15: target 2 MT 5'PFS AGC 3'PFS CAC (mixed)
RNA 1: CACCCGUGCAAAAUUGCAGGGGUCUAAAACCUUCUCCAAAUUGUUUCAUCCU
RNA 2: GGGAAUGGAUCCACAUCUACGAAUUCAGCAGGAUGAAACAAUUUGGAGAAGCACAGAUCGGAAGAGCACACGU
B16: target 2 MT 5'PFS AUA 3'PFS CUC (mixed)
RNA 1: CACCCGUGCAAAAUUGCAGGGGUCUAAAACCUUCUCCAAAUUGUUUCAUCCU
RNA 2: GGGAAUGGAUCCACAUCUACGAAUUCAUAAGGAUGAAACAAUUUGGAGAAGCUCAGAUCGGAAGAGCACACGU
B17: target 2 MT 5'PFS GCU 3'PFS CUU (mixed)
RNA 1: CACCCGUGCAAAAUUGCAGGGGUCUAAAACCUUCUCCAAAUUGUUUCAUCCU
RNA 2: GGGAAUGGAUCCACAUCUACGAAUUCGCUAGGAUGAAACAAUUUGGAGAAGCUUAGAUCGGAAGAGCACACGU
B18: target 2 MT 5'PFS UUA 3'PFS CCG (mixed)
RNA 1: CACCCGUGCAAAAUUGCAGGGGUCUAAAACCUUCUCCAAAUUGUUUCAUCCU
RNA 2: GGGAAUGGAUCCACAUCUACGAAUUCUUAAGGAUGAAACAAUUUGGAGAAGCCGAGAUCGGAAGAGCACACGU
B19: target 2 MT 5'PFS AUA 3'PFS CUU (mixed)
RNA 1: CACCCGUGCAAAAUUGCAGGGGUCUAAAACCUUCUCCAAAUUGUUUCAUCCU
RNA 2: GGGAAUGGAUCCACAUCUACGAAUUCAUAAGGAUGAAACAAUUUGGAGAAGCUUAGAUCGGAAGAGCACACGU
B20: target 2 MT 5'PFS AGA 3'PFS ACG (mixed)
RNA 1: CACCCGUGCAAAAUUGCAGGGGUCUAAAACCUUCUCCAAAUUGUUUCAUCCU
RNA 2: GGGAAUGGAUCCACAUCUACGAAUUCAGAAGGAUGAAACAAUUUGGAGAAGACGAGAUCGGAAGAGCACACGU
B21: target 2 MT 5'PFS AUA 3'PFS CUA (mixed)
RNA 1: CACCCGUGCAAAAUUGCAGGGGUCUAAAACCUUCUCCAAAUUGUUUCAUCCU
RNA 2: GGGAAUGGAUCCACAUCUACGAAUUCAUAAGGAUGAAACAAUUUGGAGAAGCUAAGAUCGGAAGAGCACACGU
B22: target 2 MT 5'PFS AGC 3'PFS CAG (mixed)
RNA 1: CACCCGUGCAAAAUUGCAGGGGUCUAAAACCUUCUCCAAAUUGUUUCAUCCU
RNA 2: GGGAAUGGAUCCACAUCUACGAAUUCAGCAGGAUGAAACAAUUUGGAGAAGCAGAGAUCGGAAGAGCACACGU
B23: target 2 MT 5'PFS AGA 3'PFS ACU (mixed)
RNA 1: CACCCGUGCAAAAUUGCAGGGGUCUAAAACCUUCUCCAAAUUGUUUCAUCCU
RNA 2: GGGAAUGGAUCCACAUCUACGAAUUCAGAAGGAUGAAACAAUUUGGAGAAGACUAGAUCGGAAGAGCACACGU
B24: target 2 MT 5'PFS AGA 3'PFS ACA (mixed)
RNA 1: CACCCGUGCAAAAUUGCAGGGGUCUAAAACCUUCUCCAAAUUGUUUCAUCCU
RNA 2: GGGAAUGGAUCCACAUCUACGAAUUCAGAAGGAUGAAACAAUUUGGAGAAGACAAGAUCGGAAGAGCACACGU

Molecular target: T1, EsCas13d, nuclease-dead
Experiment: crRNA (strand 1, pre-loaded); Mg2+; 40 mM Tris-HCl pH 7.5, 150 mM NaCl, 6 mM MgCl2, 1 mM DTT, 0.1% Tween-20, 0.2 mg/ml BSA; 25 C; 10 min per concentration, then washed
Conditions: tags: His6-TwinStrep-SUMO cleaved; N-terminal SNAP kept (SNAP-Surface 488); label: 3' end held by stalled T7 RNA polymerase

| Binder | Kd [nM] |
| --- | --- |
| B1 | 5.38 ± 0.17 |
| B2 | 5.39 ± 0.15 |
| B3 | 11.6 ± 1.2 |
| B4 | 7.3 ± 1.3 |
| B5 | 9.7 ± 2.5 |
| B6 | 4.3 ± 0.6 |
| B7 | 23 ± 7 |
| B8 | 29 ± 5 |
| B9 | 4.1 ± 0.4 |
| B10 | 7.3 ± 1.3 |
| B11 | 8.8 ± 1.6 |
| B12 | 4.6 ± 0.6 |
| B13 | 21 ± 9 |
| B14 | 7 ± 1.8 |
| B15 | 11.4 ± 2.6 |
| B16 | 13 ± 4 |
| B17 | 17.5 ± 3 |
| B18 | 39 ± 4 |
| B19 | 20 ± 6 |
| B20 | 10.3 ± 1.8 |
| B21 | 6.1 ± 1.4 |
| B22 | 6.7 ± 1.1 |
| B23 | 11.6 ± 1.9 |
| B24 | 4.6 ± 1.1 |
